In patent US10766960 (dated 2020):
Positions count from the first letter of the chain named. One block for each binder: values may come before it.

How the values were obtained:
Experiment in all cases: SPR
[1] = molecular target: T1, FcgRIIa H (human, UniProt P12318)
T1 chain: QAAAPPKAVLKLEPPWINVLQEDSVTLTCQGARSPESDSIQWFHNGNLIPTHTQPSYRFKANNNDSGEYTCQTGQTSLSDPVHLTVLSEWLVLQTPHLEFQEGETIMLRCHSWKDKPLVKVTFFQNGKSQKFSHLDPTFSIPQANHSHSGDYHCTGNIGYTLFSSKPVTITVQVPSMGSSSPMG

[2] = molecular target: T2, FcgRIIa R (human, UniProt P12318)
T2 chain: T1 chain with H134R

[3] = molecular target: FcgRIIIa V (human, UniProt P08637)
FcgRIIIa V, sequence (P08637 17-208 F176V): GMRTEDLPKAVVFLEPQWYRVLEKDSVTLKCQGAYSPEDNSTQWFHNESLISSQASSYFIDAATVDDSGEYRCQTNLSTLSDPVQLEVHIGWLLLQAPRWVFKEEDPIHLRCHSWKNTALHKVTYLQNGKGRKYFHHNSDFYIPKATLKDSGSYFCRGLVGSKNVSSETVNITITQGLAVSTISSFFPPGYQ

[4] = molecular target: FcgRIIIa F (human, UniProt P08637)
FcgRIIIa F, sequence (P08637 17-208): as the sequence (P08637 17-208 F176V) above, with V160F counted along it

[5] = molecular target: T3, FcgRIa (human, UniProt P12314)
T3 chain: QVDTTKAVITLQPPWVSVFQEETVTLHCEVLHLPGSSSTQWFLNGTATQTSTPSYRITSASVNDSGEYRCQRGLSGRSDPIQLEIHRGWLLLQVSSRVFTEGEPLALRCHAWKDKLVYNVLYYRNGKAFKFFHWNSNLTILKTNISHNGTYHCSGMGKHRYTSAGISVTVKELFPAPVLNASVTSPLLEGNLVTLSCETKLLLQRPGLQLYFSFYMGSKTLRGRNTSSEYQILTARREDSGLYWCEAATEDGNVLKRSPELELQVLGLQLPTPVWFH

[6] = molecular target: T4, FcgRIIb (human, UniProt P31994)
T4 chain: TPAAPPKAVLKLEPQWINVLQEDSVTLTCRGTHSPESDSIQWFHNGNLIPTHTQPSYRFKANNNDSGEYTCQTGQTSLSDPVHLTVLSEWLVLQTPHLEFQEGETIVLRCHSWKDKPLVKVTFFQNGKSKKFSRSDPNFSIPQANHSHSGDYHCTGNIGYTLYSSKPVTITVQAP

Kd [1]: 65 nM | Kd [2]: 21 nM | Kd [3]: 0.68 nM | Kd [4]: 2.3 nM | Kd [5]: 0.19 nM | Kd [6]: 140 nM
B1: H240-Kn234/H240-Hl068/L73-k0 (antibody)
chain 1: QDQLVQSGAEVKKPGASVKVSCKASGFNIKDTYIQWVRQAPGQGLEWMGRIDPLRKQTKYREKFEGRVTITADTSTNTAYMELSSLRSEDTAVYYCVRSGREFDYWGQGTLVTVSSASTKGPSVFPLAPSSKSTSGGTAALGCLVKDYFPEPVTVSWNSGALTSGVHTFPAVLQSSGLYSLSSVVTVPSSSLGTQTYICNVNHKPSNTKVDKKVEPKSCDKTHTCPPCPAPEDYWGPIVFLFPPKPKDTLMISRTPEVTCVVVDVSDEDPEVKFNWYVDGVEVHNAKTKPREEQYNATYRVVSVLTVLHQDWLNGKEYKCKVSNKDLPAPIEKTISKAKGQPREPQVCTLPPSRDELTKNQVSLWCLVKGFYPSDIAVEWESNGQPENNYKTTPPVLDSDGSFFLYSKLTVDKSRWQQGNVFSCSVMHEALHNHYTQKSLSLSP
chain 2: QDQLVQSGAEVKKPGASVKVSCKASGFNIKDTYIQWVRQAPGQGLEWMGRIDPLRKQTKYREKFEGRVTITADTSTNTAYMELSSLRSEDTAVYYCVRSGREFDYWGQGTLVTVSSASTKGPSVFPLAPSSKSTSGGTAALGCLVKDYFPEPVTVSWNSGALTSGVHTFPAVLQSSGLYSLSSVVTVPSSSLGTQTYICNVNHKPSNTKVDKKVEPKSCDKTHTCPPCPAPELLGGPSVFLFPPKPKDTLMISRTPEVTCVVVDVSHEEPEVKFNWYVDGVEVHNAKTKPREEQYNSTYRVVSVLTVLHQDWLNGKEYKCKVSNDALPKPIEETISKAKGQPREPQVYTLPPSRCELTKNQVSLSCAVKGFYPSDIAVEWESNGQPENNYKTTPPVLDSDGSFFLVSKLTVDKSRWQQGNVFSCSVMHEALHNHYTQKSLSLSP
chain 3: DIQMTQSPSSLSASVGDRVTITCRASQDIHKYIAWYQQKPGQAPRLLIQYTSTLQPGVPSRFSGSGSGTDYTFTISSLQPEDIATYYCLQYEQLRTFGGGTKVEIKRTVAAPSVFIFPPSDEQLKSGTASVVCLLNNFYPREAKVQWKVDNALQSGNSQESVTEQDSKDSTYSLSSTLTLSKADYEKHKVYACEVTHQGLSSPVTKSFNRGEC

Kd [1]: 25 nM | Kd [2]: 17 nM | Kd [3]: 0.86 nM | Kd [4]: 3 nM | Kd [5]: 0.23 nM | Kd [6]: 190 nM
B2: H240-Kn232/H240-Hl068/L73-k0 (antibody)
chain 1: B1 chain 1 with D233L
chain 2: B1 chain 2
chain 3: B1 chain 3

Kd [1]: 49 nM | Kd [2]: 240 nM | Kd [3]: 0.85 nM | Kd [4]: 3.7 nM | Kd [5]: 0.24 nM | Kd [6]: 1600 nM
B3: H240-Kn198/H240-Hl068/L73-k0 (antibody)
chain 1: B1 chain 1 with D233L, Y234Q, I238M, D269E, D326A
chain 2: B1 chain 2
chain 3: B1 chain 3

Kd [1]: 190 nM | Kd [2]: 200 nM | Kd [3]: 0.81 nM | Kd [4]: 4.4 nM | Kd [5]: 0.16 nM | Kd [6]: 1700 nM
B4: H240-Kn228/H240-Hl210/L73-k0 (antibody)
chain 1: B1 chain 1 with Y234Q, D269E, D326A
chain 2: B1 chain 2 with K329A
chain 3: B1 chain 3

Kd [1]: 22 nM | Kd [2]: 9.6 nM | Kd [3]: 0.93 nM | Kd [4]: 2.6 nM | Kd [5]: 0.18 nM | Kd [6]: 150 nM
B5: H240-Kn230/H240-Hl068/L73-k0 (antibody)
chain 1: B1 chain 1 with D233V
chain 2: B1 chain 2
chain 3: B1 chain 3

Kd [1]: 37 nM | Kd [2]: 23 nM | Kd [3]: 0.87 nM | Kd [4]: 2.7 nM | Kd [5]: 0.15 nM | Kd [6]: 220 nM
B6: H240-Kn235/H240-Hl068/L73-k0 (antibody)
chain 1: B1 chain 1 with D233F
chain 2: B1 chain 2
chain 3: B1 chain 3

Kd [1]: 120 nM | Kd [2]: 310 nM | Kd [3]: 0.85 nM | Kd [4]: 3.7 nM | Kd [5]: 0.11 nM | Kd [6]: 3100 nM
B7: H240-Kn226/H240-Hl210/L73-k0 (antibody)
chain 1: B1 chain 1 with D233F, Y234Q, D269E, D326A
chain 2: B1 chain 2 with K329A
chain 3: B1 chain 3

Kd [1]: 120 nM | Kd [2]: 480 nM | Kd [3]: 1 nM | Kd [4]: 4.9 nM | Kd [5]: 0.047 nM | Kd [6]: 3100 nM
B8: H240-Kn198/H240-Hl210/L73-k0 (antibody)
chain 1: B1 chain 1 with D233L, Y234Q, I238M, D269E, D326A
chain 2: B1 chain 2 with K329A
chain 3: B1 chain 3

Kd [1]: 66 nM | Kd [2]: 21 nM | Kd [3]: 0.75 nM | Kd [4]: 2.5 nM | Kd [5]: 0.18 nM | Kd [6]: 210 nM
B9: H240-Kn233/H240-Hl068/L73-k0 (antibody)
chain 1: B1 chain 1 with D233E
chain 2: B1 chain 2
chain 3: B1 chain 3

Kd [1]: 290 nM | Kd [2]: 370 nM | Kd [3]: 0.8 nM | Kd [4]: 1.8 nM | Kd [5]: 0.13 nM | Kd [6]: 2800 nM
B10: H240-Kn227/H240-Hl214/L73-k0 (antibody)
chain 1: B1 chain 1 with D233E, Y234Q, D269E, D326A
chain 2: B1 chain 2 with K329F
chain 3: B1 chain 3

Kd [1]: 93 nM | Kd [2]: 56 nM | Kd [3]: 0.45 nM | Kd [4]: 3 nM | Kd [5]: 0.16 nM | Kd [6]: 300 nM
B11: H240-Kn203/H240-Hl210/L73-k0 (antibody)
chain 1: B1 chain 1 with D233F, I238M
chain 2: B1 chain 2 with K329A
chain 3: B1 chain 3

Kd [1]: 110 nM | Kd [2]: 430 nM | Kd [3]: 0.49 nM | Kd [4]: 3.2 nM | Kd [5]: 0.069 nM | Kd [6]: 7200 nM
B12: H240-Kn201/H240-Hl210/L73-k0 (antibody)
chain 1: B1 chain 1 with D233F, Y234Q, I238M, D269E, D326A
chain 2: B1 chain 2 with K329A
chain 3: B1 chain 3

Kd [1]: 440 nM | Kd [2]: 830 nM | Kd [3]: 0.95 nM | Kd [4]: 2.6 nM | Kd [5]: 0.09 nM | Kd [6]: 6100 nM
B13: H240-Kn202/H240-Hl214/L73-k0 (antibody)
chain 1: B1 chain 1 with D233E, Y234Q, I238M, D269E, D326A
chain 2: B1 chain 2 with K329F
chain 3: B1 chain 3

Kd [1]: 16 nM | Kd [2]: 8.9 nM | Kd [3]: 0.73 nM | Kd [4]: 2.9 nM | Kd [5]: 0.18 nM | Kd [6]: 120 nM
B14: H240-Kn231/H240-Hl068/L73-k0 (antibody)
chain 1: B1 chain 1 with D233I
chain 2: B1 chain 2
chain 3: B1 chain 3

Kd [1]: 230 nM | Kd [2]: 320 nM | Kd [3]: 0.53 nM | Kd [4]: 3.3 nM | Kd [5]: 0.17 nM | Kd [6]: 2200 nM
B15: H240-Kn202/H240-Hl210/L73-k0 (antibody)
chain 1: B1 chain 1 with D233E, Y234Q, I238M, D269E, D326A
chain 2: B1 chain 2 with K329A
chain 3: B1 chain 3

Kd [1]: 120 nM | Kd [2]: 200 nM | Kd [3]: 0.66 nM | Kd [4]: 2.5 nM | Kd [5]: 0.4 nM | Kd [6]: 1400 nM
B16: H240-Kn202/H240-Hl068/L73-k0 (antibody)
chain 1: B1 chain 1 with D233E, Y234Q, I238M, D269E, D326A
chain 2: B1 chain 2
chain 3: B1 chain 3

Kd [1]: 270 nM | Kd [2]: 320 nM | Kd [3]: 0.77 nM | Kd [4]: 1.9 nM | Kd [5]: 0.12 nM | Kd [6]: 2300 nM
B17: H240-Kn228/H240-Hl214/L73-k0 (antibody)
chain 1: B1 chain 1 with Y234Q, D269E, D326A
chain 2: B1 chain 2 with K329F
chain 3: B1 chain 3

Kd [1]: 150 nM | Kd [2]: 560 nM | Kd [3]: 1.4 nM | Kd [4]: 3.9 nM | Kd [5]: 0.091 nM | Kd [6]: 3700 nM
B18: H240-Kn201/H240-Hl214/L73-k0 (antibody)
chain 1: B1 chain 1 with D233F, Y234Q, I238M, D269E, D326A
chain 2: B1 chain 2 with K329F
chain 3: B1 chain 3

Kd [1]: 160 nM | Kd [2]: 360 nM | Kd [3]: 0.77 nM | Kd [4]: 1.9 nM | Kd [5]: 0.089 nM | Kd [6]: 3400 nM
B19: H240-Kn226/H240-Hl214/L73-k0 (antibody)
chain 1: B1 chain 1 with D233F, Y234Q, D269E, D326A
chain 2: B1 chain 2 with K329F
chain 3: B1 chain 3
